From PMC4640858

Target: QsdR (Quorum sensing degradation Regulation) wild type, transcriptional regulator of the TetR/FabR family (Rhodococcus erythropolis R138)
Test: SEC; gel filtration Superdex 200 26/60, buffer A (50 mM Tris-HCl pH 8, 150 mM NaCl); molecular mass estimate 44 kDa

stoichiometry N: 2
Substance: QsdR (Quorum sensing degradation Regulation) wild type, transcriptional regulator of the TetR/FabR family (natural protein)
